# B1: LINE1-full (parent)
# chain: UACGUAGGUGGUUUUCCCCUGAUAGUGCUAAGGGGGCCUGGAAGUUUGGACUGGGCAGAGCUCAACACAGCGUGGCAAAGUGGCUGUGGCUAGACUGCCUCUCUGGAUUCCUCGUCACUCAGCAGGGCAUCUCUGAGAGAAAUGCC
# Variants of: B1
# Experiment: self-cleavage, relative activity (ratio to wild type); higher = more cleavage; in vitro, sequencing; the parent is a self-cleaving ribozyme
row,Variant,self-cleavage
1,UACGCAGGUGGUUUUCCCCUGAUAGUGCUAAGGGGGCCUGGAAGUUUGGACUGGGCAGAGCUCAACACAGCGUGGCAAAGUGGCUGUGGCUAGACUGCCUCUCUGGAUUCCUCGUCACUCAGCAGGGCAUCUCUGAGAGGAAUGCC [U5C A140G],1.12
2,UACGCAGGUAGUUUUCCCCUGAUAGUGCUAAGGGGGCCUGGAAGUUUGGACUGGGCAGAGCUCAACACAGCGUGGCAAAGUGGCUGUGGCUAGACUGCCUCUCUGGAUUCCUCGUCACUCAGCAGGGCAUCUCUGAGAGAAAUGCC [U5C G10A],0.51
3,UACGCAGGUGGUUUUCCCCUGAUAGUGCUAAGGGGGCCUGGAAGUUUGGACUGGGCAGAGCUCAACACAGCGUGGCAAAGUGGCUGUGGCUAGACUGCCUCUCUGGAUUCCUCGUCACUCGGCAGGGCAUCUCUGAGAGAAAUGCC [U5C A121G],1.28
4,UACGCAGGUGGUUUUCCCCUGAUAGUGCUAAGGGGGCCUGGAAGUUUGGACUGGGCAGAGCUCAACACAGCGUGGCAAAGUGGCUGUGGCUAGACUGCCUCUCUGGAUUCCUCGUCACUCUGCAGGGCAUCUCUGAGAGAAAUGCC [U5C A121U],0.86
5,UACGCAGGUGGUUUUCCCCUGAUAGUGCUAAGGGGGCCUGGAAGUUUGGACUGGGCAGAGCUCAACACAGUGUGGCAAAGUGGCUGUGGCUAGACUGCCUCUCUGGAUUCCUCGUCACUCAGCAGGGCAUCUCUGAGAGAAAUGCC [U5C C71U],0.68
6,UACGCAGGUGGUUUUCCCCUGAUAGUGCUAAGGGGGCCUGGAAGUUUGGACUGGGCAGAGCUCAACACAGCGUGGCAAAGUGGCUGUGGCUAGACUGCCUCUCUGGGUUCCUCGUCACUCAGCAGGGCAUCUCUGAGAGAAAUGCC [U5C A107G],1.13
7,UACGCAGGUGGUUUUCCCUUGAUAGUGCUAAGGGGGCCUGGAAGUUUGGACUGGGCAGAGCUCAACACAGCGUGGCAAAGUGGCUGUGGCUAGACUGCCUCUCUGGAUUCCUCGUCACUCAGCAGGGCAUCUCUGAGAGAAAUGCC [U5C C19U],1
8,UACGCAGGUGGUUUUCCCAUGAUAGUGCUAAGGGGGCCUGGAAGUUUGGACUGGGCAGAGCUCAACACAGCGUGGCAAAGUGGCUGUGGCUAGACUGCCUCUCUGGAUUCCUCGUCACUCAGCAGGGCAUCUCUGAGAGAAAUGCC [U5C C19A],0.8
9,UACGCAGGUGGUUUUCCCCUGAUAGUGCUAUGGGGGCCUGGAAGUUUGGACUGGGCAGAGCUCAACACAGCGUGGCAAAGUGGCUGUGGCUAGACUGCCUCUCUGGAUUCCUCGUCACUCAGCAGGGCAUCUCUGAGAGAAAUGCC [U5C A31U],0.78
10,UACGCAGGUGGUUUUCCCCUGAUAGUGCUACGGGGGCCUGGAAGUUUGGACUGGGCAGAGCUCAACACAGCGUGGCAAAGUGGCUGUGGCUAGACUGCCUCUCUGGAUUCCUCGUCACUCAGCAGGGCAUCUCUGAGAGAAAUGCC [U5C A31C],0.75
11,UACGCAGGUGGUUUUCCCCUGAUAGUGCUGAGGGGGCCUGGAAGUUUGGACUGGGCAGAGCUCAACACAGCGUGGCAAAGUGGCUGUGGCUAGACUGCCUCUCUGGAUUCCUCGUCACUCAGCAGGGCAUCUCUGAGAGAAAUGCC [U5C A30G],0.74
12,UACGCAGGUGGUUUUCCCCUGAUAGUGCUCAGGGGGCCUGGAAGUUUGGACUGGGCAGAGCUCAACACAGCGUGGCAAAGUGGCUGUGGCUAGACUGCCUCUCUGGAUUCCUCGUCACUCAGCAGGGCAUCUCUGAGAGAAAUGCC [U5C A30C],0.28
13,UACGCAGGUGGUUUUCCCCUGAUAGUGCUAAGGGGGCCUGGAAGUUUGGACUGGGCAGAGCUCAACACAGCGUGGCAAAGUGGCUGUGGCUAGAGUGCCUCUCUGGAUUCCUCGUCACUCAGCAGGGCAUCUCUGAGAGAAAUGCC [U5C C95G],0.17
14,UACGCAGGUGGUUUUCCCCUGAUAAUGCUAAGGGGGCCUGGAAGUUUGGACUGGGCAGAGCUCAACACAGCGUGGCAAAGUGGCUGUGGCUAGACUGCCUCUCUGGAUUCCUCGUCACUCAGCAGGGCAUCUCUGAGAGAAAUGCC [U5C G25A],1.34
15,UACGCAGGUGGUUUUCCCCUGAUAGUGCUAAGGGGGCCUGGAAGUUUGGACUGGGCAGAGCUCAACACAGCGUGGCAAAGUGGCUGUGGUUAGACUGCCUCUCUGGAUUCCUCGUCACUCAGCAGGGCAUCUCUGAGAGAAAUGCC [U5C C90U],0.11
16,UACGCAGGUGGUUUUCCCCUGAUAGUGCUAAGGGGGCCUGGAAGUUUGGACUGGGCAGAGCUCAACACAGCGUGGCAAAGUGGCUGUGGCUAGACUGCCUCUCUGGAUUCCUCGUCACUCAGCAGGGCAUCUCUGAGAGAACUGCC [U5C A142C],0.98
17,UACGCAGGUGGUUUUCCCCUGAUAGUGCUAAGGGGGCCUGGAAGUUUGGACUGGGCAGAGCUCAACACAGCGUGGCAAAGUGGCUGUGGCUAGACUGCCUCUCUGGAUUCCUCGUCACUCAGCAGGGCAUCUCUGAGAGAAAUGCU [U5C C146U],0.69
18,UACGCAGGUGGUUUUCCCCUGAUAGUGCUAAGGGGGCCUGGAAGUUUGGACUGGGCAGAGCUCAACACAGCGUGGCAAAGUGGCUGUGGCUAGACUGCCUCUCUGGAUUCCUCGUCACUCAGCAGGGCAUCUCUGAGCGAAAUGCC [U5C A138C],0
19,UACGCAGGUGGUUUUCCCCUGAUAGUGCUAAGGGGGCCUGGAAGUUUGGACUGGGCAGGGCUCAACACAGCGUGGCAAAGUGGCUGUGGCUAGACUGCCUCUCUGGAUUCCUCGUCACUCAGCAGGGCAUCUCUGAGAGAAAUGCC [U5C A59G],0.32
20,UACGCAGGUGGUUUUCCCCUGAUAGUGCUAAGGGGGCCUGGAAGUUUGGACUGGGCAGAGCUCAACACAGCGUGGCGAAGUGGCUGUGGCUAGACUGCCUCUCUGGAUUCCUCGUCACUCAGCAGGGCAUCUCUGAGAGAAAUGCC [U5C A77G],1.49

row,Variant,self-cleavage
1,UACGCAGGUGGUUUUCCCCUGAUAGUGCUAAGGGGGCCUGGAAGUUUGGACUGGGCAGAGCUCAACACAGCGUGGCUAAGUGGCUGUGGCUAGACUGCCUCUCUGGAUUCCUCGUCACUCAGCAGGGCAUCUCUGAGAGAAAUGCC [U5C A77U],0.73
2,UACGCAGGUGGUUUUCCCCUGAUAGUGCUAAGGGGGCCUGGAAGUUUGGACUGGGCAGAGCUCAACUCAGCGUGGCAAAGUGGCUGUGGCUAGACUGCCUCUCUGGAUUCCUCGUCACUCAGCAGGGCAUCUCUGAGAGAAAUGCC [U5C A67U],0.47
3,UACGCAGGUGGUUUUCCCCUGAUAGUGCUAAGGGGGCCUGGAAGUUUGGACUGGGCAGAGCUCAACACAGCGUGGCAAAGUGGCUGUGGCUAGACUGCCUCUCUGGAUUCCUCGUCACUCAGCGGGGCAUCUCUGAGAGAAAUGCC [U5C A124G],1.15
4,UACGCAGGUGGUUUUCCCCUGAUAGUGCUAAGGGGGCCUGGAAGUUUGGACUGGGCAGAGCUCAACACAGCGUGGCAAAGUGGCUGUGGCUAGACUGCCUCUCUGGAUUCCUCGUCACUCAGCCGGGCAUCUCUGAGAGAAAUGCC [U5C A124C],0.8
5,UACGCAGGUGGUUUUCCCCUGAUAGUGCUAAGGGGGCCUGGAAGUUUGGACUGGGCAGAGCUCAACACAGCGUGGCAUAGUGGCUGUGGCUAGACUGCCUCUCUGGAUUCCUCGUCACUCAGCAGGGCAUCUCUGAGAGAAAUGCC [U5C A78U],1.9
6,UACGCAGGUGGUUUUCCCCUGAUAGUGCUAAGGGGGCCUGGAAGUUUGGACUGGGCCGAGCUCAACACAGCGUGGCAAAGUGGCUGUGGCUAGACUGCCUCUCUGGAUUCCUCGUCACUCAGCAGGGCAUCUCUGAGAGAAAUGCC [U5C A57C],0.49
7,UACGCAGGUGGUUUUCCCCUGAUAGUGCUAAGGGGGCCUGGAAGUUUGGACUGGGCAGAGCUCAACACAGCGUGGCAAAGUGGCUGUGGCUAGACUGCCUCUCUGGAUUCCUCGUCACUCAGCAGGGCGUCUCUGAGAGAAAUGCC [U5C A129G],1.43
8,UACGCAGGUGGUUUUCCCCUGAUAGUGCUAAGGGGGCCUGGAAGUUUGGACUGGGCAGAGCUCAACACAGCGUGGCAAAGUGGCUGUGGCUAGACUGCCUCUCUGGAUUCCUCGUAACUCAGCAGGGCAUCUCUGAGAGAAAUGCC [U5C C116A],1.29
9,UACGCAGGUGGUUUUCCCCUGAUAGUGCUAAGGGGGCCUGGAAGUUUGGGCUGGGCAGAGCUCAACACAGCGUGGCAAAGUGGCUGUGGCUAGACUGCCUCUCUGGAUUCCUCGUCACUCAGCAGGGCAUCUCUGAGAGAAAUGCC [U5C A50G],1.01
10,UACGCAGGUGGUUUUCCCCUGAUAGUGCUAAGGGGGCCUGGAAGUUUGGACUGGGCAGAGCUCAACACAGCGUGGCAAAGUGGCUGUGGCUAGACUGCCUCUCUGGAUUCCUCGUCACUCAGUAGGGCAUCUCUGAGAGAAAUGCC [U5C C123U],0.45
11,UACGCAGGUGGUUUUCCCCUGAUAGUGCUAAGGGGGCCUGGAAGUUUGGACUGGGCAGAGCUCAACACAGCGUGGCAAAGUGGCUGUGGCUAGACUGCCUCUCUGGAUUCCUAGUCACUCAGCAGGGCAUCUCUGAGAGAAAUGCC [U5C C113A],0.36
12,UACGCAGGUGGUUUUCCCCUGAUAGUGCUAAGGGGGCCUGGAAGUUUGGACUGGGCAGAGCUCAACACAGCGUGGCAAAGUGGCUGUGGCUAGGCUGCCUCUCUGGAUUCCUCGUCACUCAGCAGGGCAUCUCUGAGAGAAAUGCC [U5C A94G],0.46
13,UACGCAGGUGGUUUUCCCCUGAUAGUGCUAAGGGGGCCUGGAAGUUUGGACUGGGCAGAGCUCAACACAGCGUGGCAAAGUGGCUGUGGCUAGACUGCCUCUCUGGAUUCCUCGUCACUCAGCAGGGCAUCUCUGAGAGAUAUGCC [U5C A141U],0.73
14,UACGCAGGUGGUUUUCCCCUGAUAGUGCUAAGGGGGCCUGGAAGUUUGGACUGGGCAGAGCUCAACACAGCGUGGCAAGGUGGCUGUGGCUAGACUGCCUCUCUGGAUUCCUCGUCACUCAGCAGGGCAUCUCUGAGAGAAAUGCC [U5C A79G],1.15
15,UACGCAGGUGGUUUUCCGCUGAUAGUGCUAAGGGGGCCUGGAAGUUUGGACUGGGCAGAGCUCAACACAGCGUGGCAAAGUGGCUGUGGCUAGACUGCCUCUCUGGAUUCCUCGUCACUCAGCAGGGCAUCUCUGAGAGAAAUGCC [U5C C18G],0.99
16,UACGCAGGUGGUUUUCCCCUGAUAGUGCUAAGGGGGCCUGGGAGUUUGGACUGGGCAGAGCUCAACACAGCGUGGCAAAGUGGCUGUGGCUAGACUGCCUCUCUGGAUUCCUCGUCACUCAGCAGGGCAUCUCUGAGAGAAAUGCC [U5C A42G],0.75
17,UACGCAGGUGGUUUUCCCCUGAUAGUGCUAAGGGGGCCUGGUAGUUUGGACUGGGCAGAGCUCAACACAGCGUGGCAAAGUGGCUGUGGCUAGACUGCCUCUCUGGAUUCCUCGUCACUCAGCAGGGCAUCUCUGAGAGAAAUGCC [U5C A42U],1.04
18,UACGCAGGUGGUUUUCCCCUGAUAGUGCUAAGGGGGCCUGGAAGUUUGGACUGGGCAGAGCUCAACACUGCGUGGCAAAGUGGCUGUGGCUAGACUGCCUCUCUGGAUUCCUCGUCACUCAGCAGGGCAUCUCUGAGAGAAAUGCC [U5C A69U],0.14
19,UACGCAGGUGGUUUUCCCCUGAUAGUACUAAGGGGGCCUGGAAGUUUGGACUGGGCAGAGCUCAACACAGCGUGGCAAAGUGGCUGUGGCUAGACUGCCUCUCUGGAUUCCUCGUCACUCAGCAGGGCAUCUCUGAGAGAAAUGCC [U5C G27A],0.17

# Source: the RNAGym collection of RNA variant scans (doi:10.7554/elife.90254)
